Literature values as cited in article PMC3101942.
pKd: −log10 of the molar value.

Target: tissue factor (Homo sapiens) (UniProt P13726)
UniProt P13726, sequence (P13726 33-251): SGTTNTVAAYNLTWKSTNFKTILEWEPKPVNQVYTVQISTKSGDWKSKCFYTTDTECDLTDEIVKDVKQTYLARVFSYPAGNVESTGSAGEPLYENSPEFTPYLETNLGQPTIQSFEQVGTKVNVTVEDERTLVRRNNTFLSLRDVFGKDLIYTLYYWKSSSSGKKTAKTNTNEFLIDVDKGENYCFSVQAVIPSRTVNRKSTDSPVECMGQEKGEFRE

factor VII (from UniProt P08709)
pKd: 12.00
